Square brackets hold non-standard residues; d marks the D form. Aib = CC(C)(N)C(=O)O
Assays:
[1] = biological target: human glucagon-like peptide 1 receptor (GLP-1R) (human, UniProt P43220); assay: cell-based or functional assay
[2] = biological target: T1, human GLP-2 receptor (hGLP2-R) (human, UniProt O95838); assay: cell-based or functional assay
T1 sequence: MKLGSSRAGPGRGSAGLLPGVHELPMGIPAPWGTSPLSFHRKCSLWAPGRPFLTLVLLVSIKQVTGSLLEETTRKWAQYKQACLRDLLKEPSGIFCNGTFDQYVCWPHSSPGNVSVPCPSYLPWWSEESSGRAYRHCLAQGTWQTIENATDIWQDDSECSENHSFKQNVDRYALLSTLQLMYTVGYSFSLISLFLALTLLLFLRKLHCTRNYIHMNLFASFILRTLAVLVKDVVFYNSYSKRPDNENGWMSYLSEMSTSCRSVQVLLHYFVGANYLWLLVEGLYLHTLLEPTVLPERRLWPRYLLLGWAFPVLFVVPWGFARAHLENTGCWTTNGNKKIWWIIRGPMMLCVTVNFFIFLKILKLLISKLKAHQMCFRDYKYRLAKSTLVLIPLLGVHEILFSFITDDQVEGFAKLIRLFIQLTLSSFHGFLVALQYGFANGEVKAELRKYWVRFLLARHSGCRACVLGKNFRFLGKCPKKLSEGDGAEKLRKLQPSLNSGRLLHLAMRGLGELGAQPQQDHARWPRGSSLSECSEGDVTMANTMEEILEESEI

B1: Compound 31 (peptide)
peptide: H-H[Aib]EGSFTSELATILDGKAARDFIAWLIAHKITD-OH
SMILES: CC[C@H](C)[C@H](NC(=O)[C@H](CC(C)C)NC(=O)[C@H](Cc1c[nH]c2ccccc12)NC(=O)[C@H](C)NC(=O)[C@@H](NC(=O)[C@H](Cc1ccccc1)NC(=O)[C@H](CC(=O)O)NC(=O)[C@H](CCCNC(=N)N)NC(=O)[C@H](C)NC(=O)[C@H](C)NC(=O)[C@H](CCCCN)NC(=O)CNC(=O)[C@H](CC(=O)O)NC(=O)[C@H](CC(C)C)NC(=O)[C@@H](NC(=O)[C@@H](NC(=O)[C@H](C)NC(=O)[C@H](CC(C)C)NC(=O)[C@H](CCC(=O)O)NC(=O)[C@H](CO)NC(=O)[C@@H](NC(=O)[C@H](Cc1ccccc1)NC(=O)[C@H](CO)NC(=O)CNC(=O)[C@H](CCC(=O)O)NC(=O)C(C)(C)NC(=O)[C@@H](N)Cc1c[nH]cn1)[C@@H](C)O)[C@@H](C)O)[C@@H](C)CC)[C@@H](C)CC)C(=O)N[C@@H](C)C(=O)N[C@@H](Cc1c[nH]cn1)C(=O)N[C@@H](CCCCN)C(=O)N[C@H](C(=O)N[C@H](C(=O)N[C@@H](CC(=O)O)C(=O)O)[C@@H](C)O)[C@@H](C)CC
EC50 GLP-1 (nM); cAMP AlphaScreen [1]: 0.02 nM
EC50 GLP-2 (nM); cAMP AlphaScreen [2]: 0.078 nM

B2: Compound 2 (peptide)
peptide: H-H[Aib]EGTFSSELATILDEQAARDFIAWLIAHKITD-OH
SMILES: CC[C@H](C)[C@H](NC(=O)[C@H](CC(C)C)NC(=O)[C@H](Cc1c[nH]c2ccccc12)NC(=O)[C@H](C)NC(=O)[C@@H](NC(=O)[C@H](Cc1ccccc1)NC(=O)[C@H](CC(=O)O)NC(=O)[C@H](CCCNC(=N)N)NC(=O)[C@H](C)NC(=O)[C@H](C)NC(=O)[C@H](CCC(N)=O)NC(=O)[C@H](CCC(=O)O)NC(=O)[C@H](CC(=O)O)NC(=O)[C@H](CC(C)C)NC(=O)[C@@H](NC(=O)[C@@H](NC(=O)[C@H](C)NC(=O)[C@H](CC(C)C)NC(=O)[C@H](CCC(=O)O)NC(=O)[C@H](CO)NC(=O)[C@H](CO)NC(=O)[C@H](Cc1ccccc1)NC(=O)[C@@H](NC(=O)CNC(=O)[C@H](CCC(=O)O)NC(=O)C(C)(C)NC(=O)[C@@H](N)Cc1c[nH]cn1)[C@@H](C)O)[C@@H](C)O)[C@@H](C)CC)[C@@H](C)CC)C(=O)N[C@@H](C)C(=O)N[C@@H](Cc1c[nH]cn1)C(=O)N[C@@H](CCCCN)C(=O)N[C@H](C(=O)N[C@H](C(=O)N[C@@H](CC(=O)O)C(=O)O)[C@@H](C)O)[C@@H](C)CC
EC50 GLP-1 (nM); cAMP AlphaScreen [1]: 0.046 nM
EC50 GLP-2 (nM); cAMP AlphaScreen [2]: 0.034 nM

B3: Compound 33 (peptide)
peptide: H-H[Aib]EGTFTSELATILDEQAARDFINWLIAHKITD-OH
SMILES: CC[C@H](C)[C@H](NC(=O)[C@H](CC(C)C)NC(=O)[C@H](Cc1c[nH]c2ccccc12)NC(=O)[C@H](CC(N)=O)NC(=O)[C@@H](NC(=O)[C@H](Cc1ccccc1)NC(=O)[C@H](CC(=O)O)NC(=O)[C@H](CCCNC(=N)N)NC(=O)[C@H](C)NC(=O)[C@H](C)NC(=O)[C@H](CCC(N)=O)NC(=O)[C@H](CCC(=O)O)NC(=O)[C@H](CC(=O)O)NC(=O)[C@H](CC(C)C)NC(=O)[C@@H](NC(=O)[C@@H](NC(=O)[C@H](C)NC(=O)[C@H](CC(C)C)NC(=O)[C@H](CCC(=O)O)NC(=O)[C@H](CO)NC(=O)[C@@H](NC(=O)[C@H](Cc1ccccc1)NC(=O)[C@@H](NC(=O)CNC(=O)[C@H](CCC(=O)O)NC(=O)C(C)(C)NC(=O)[C@@H](N)Cc1c[nH]cn1)[C@@H](C)O)[C@@H](C)O)[C@@H](C)O)[C@@H](C)CC)[C@@H](C)CC)C(=O)N[C@@H](C)C(=O)N[C@@H](Cc1c[nH]cn1)C(=O)N[C@@H](CCCCN)C(=O)N[C@H](C(=O)N[C@H](C(=O)N[C@@H](CC(=O)O)C(=O)O)[C@@H](C)O)[C@@H](C)CC
EC50 GLP-1 (nM); cAMP AlphaScreen [1]: 0.004 nM
EC50 GLP-2 (nM); cAMP AlphaScreen [2]: 0.041 nM

B4: Compound 32 (peptide)
peptide: H-H[Aib]EGTFSSELATILDGKAARDFIAWLIAHKITD-OH
SMILES: CC[C@H](C)[C@H](NC(=O)[C@H](CC(C)C)NC(=O)[C@H](Cc1c[nH]c2ccccc12)NC(=O)[C@H](C)NC(=O)[C@@H](NC(=O)[C@H](Cc1ccccc1)NC(=O)[C@H](CC(=O)O)NC(=O)[C@H](CCCNC(=N)N)NC(=O)[C@H](C)NC(=O)[C@H](C)NC(=O)[C@H](CCCCN)NC(=O)CNC(=O)[C@H](CC(=O)O)NC(=O)[C@H](CC(C)C)NC(=O)[C@@H](NC(=O)[C@@H](NC(=O)[C@H](C)NC(=O)[C@H](CC(C)C)NC(=O)[C@H](CCC(=O)O)NC(=O)[C@H](CO)NC(=O)[C@H](CO)NC(=O)[C@H](Cc1ccccc1)NC(=O)[C@@H](NC(=O)CNC(=O)[C@H](CCC(=O)O)NC(=O)C(C)(C)NC(=O)[C@@H](N)Cc1c[nH]cn1)[C@@H](C)O)[C@@H](C)O)[C@@H](C)CC)[C@@H](C)CC)C(=O)N[C@@H](C)C(=O)N[C@@H](Cc1c[nH]cn1)C(=O)N[C@@H](CCCCN)C(=O)N[C@H](C(=O)N[C@H](C(=O)N[C@@H](CC(=O)O)C(=O)O)[C@@H](C)O)[C@@H](C)CC
EC50 GLP-1 (nM); cAMP AlphaScreen [1]: 0.038 nM
EC50 GLP-2 (nM); cAMP AlphaScreen [2]: 0.15 nM

B5: Compound 35 (peptide)
peptide: H-H[Aib]EGTFTSELATILDEQAARDFINWLKAHKITD-OH
SMILES: CC[C@H](C)[C@H](NC(=O)[C@H](Cc1ccccc1)NC(=O)[C@H](CC(=O)O)NC(=O)[C@H](CCCNC(=N)N)NC(=O)[C@H](C)NC(=O)[C@H](C)NC(=O)[C@H](CCC(N)=O)NC(=O)[C@H](CCC(=O)O)NC(=O)[C@H](CC(=O)O)NC(=O)[C@H](CC(C)C)NC(=O)[C@@H](NC(=O)[C@@H](NC(=O)[C@H](C)NC(=O)[C@H](CC(C)C)NC(=O)[C@H](CCC(=O)O)NC(=O)[C@H](CO)NC(=O)[C@@H](NC(=O)[C@H](Cc1ccccc1)NC(=O)[C@@H](NC(=O)CNC(=O)[C@H](CCC(=O)O)NC(=O)C(C)(C)NC(=O)[C@@H](N)Cc1c[nH]cn1)[C@@H](C)O)[C@@H](C)O)[C@@H](C)O)[C@@H](C)CC)C(=O)N[C@@H](CC(N)=O)C(=O)N[C@@H](Cc1c[nH]c2ccccc12)C(=O)N[C@@H](CC(C)C)C(=O)N[C@@H](CCCCN)C(=O)N[C@@H](C)C(=O)N[C@@H](Cc1c[nH]cn1)C(=O)N[C@@H](CCCCN)C(=O)N[C@H](C(=O)N[C@H](C(=O)N[C@@H](CC(=O)O)C(=O)O)[C@@H](C)O)[C@@H](C)CC
EC50 GLP-1 (nM); cAMP AlphaScreen [1]: 0.006 nM
EC50 GLP-2 (nM); cAMP AlphaScreen [2]: 0.048 nM

B6: Compound 34 (peptide)
peptide: H-H[Aib]EGTFTSELATILDEQAARDFISWLIAHKITD-OH
SMILES: CC[C@H](C)[C@H](NC(=O)[C@H](CC(C)C)NC(=O)[C@H](Cc1c[nH]c2ccccc12)NC(=O)[C@H](CO)NC(=O)[C@@H](NC(=O)[C@H](Cc1ccccc1)NC(=O)[C@H](CC(=O)O)NC(=O)[C@H](CCCNC(=N)N)NC(=O)[C@H](C)NC(=O)[C@H](C)NC(=O)[C@H](CCC(N)=O)NC(=O)[C@H](CCC(=O)O)NC(=O)[C@H](CC(=O)O)NC(=O)[C@H](CC(C)C)NC(=O)[C@@H](NC(=O)[C@@H](NC(=O)[C@H](C)NC(=O)[C@H](CC(C)C)NC(=O)[C@H](CCC(=O)O)NC(=O)[C@H](CO)NC(=O)[C@@H](NC(=O)[C@H](Cc1ccccc1)NC(=O)[C@@H](NC(=O)CNC(=O)[C@H](CCC(=O)O)NC(=O)C(C)(C)NC(=O)[C@@H](N)Cc1c[nH]cn1)[C@@H](C)O)[C@@H](C)O)[C@@H](C)O)[C@@H](C)CC)[C@@H](C)CC)C(=O)N[C@@H](C)C(=O)N[C@@H](Cc1c[nH]cn1)C(=O)N[C@@H](CCCCN)C(=O)N[C@H](C(=O)N[C@H](C(=O)N[C@@H](CC(=O)O)C(=O)O)[C@@H](C)O)[C@@H](C)CC
EC50 GLP-1 (nM); cAMP AlphaScreen [1]: 0.005 nM
EC50 GLP-2 (nM); cAMP AlphaScreen [2]: 0.049 nM

— US11130793B2, “GLP-1/GLP-2 dual agonists” (Zealand Pharma A/S, priority 2016, dated 2021)
